Columns and labels:
Experiment in all cases: cross-linking; 293T cells coexpressing FLAG- and HA-tagged Gag and V1B-MS2 viral RNA treated with 1 mM EGS, 30 min, room temperature; membrane flotation; cytoplasmic fraction (10th fraction) analysed by anti-FLAG western blot
[1] = target: HIV-1 G2A-Gag, FLAG- and HA-tagged (HIV-1)
[2] = target: HIV-1 Gag, FLAG- and HA-tagged (wild type) (HIV-1)
[3] = target: HIV-1 Gag-delCTD, FLAG- and HA-tagged (lacking the C-terminal domain of capsid) (HIV-1)

## HIV-1 G2A-Gag, FLAG- and HA-tagged (natural protein)
[1]
  stoichiometry N: 2

## HIV-1 Gag, FLAG- and HA-tagged (wild type) (natural protein)
[2]
  stoichiometry N: 2

## HIV-1 Gag-delCTD, FLAG- and HA-tagged (lacking the C-terminal domain of capsid) (natural protein)
[3]
  stoichiometry N: 2
